Measured values as given in EP4772193A1 (Teijin Pharma Limited, dated 2026).
Numbering of substitutions follows the chain as printed. In names and notes the source's numbering stands.

T1: recombinant human soluble gpNMB (recombinant human gpNMB-FLAG-His) (human, UniProt Q14956 23-498)
T1 sequence: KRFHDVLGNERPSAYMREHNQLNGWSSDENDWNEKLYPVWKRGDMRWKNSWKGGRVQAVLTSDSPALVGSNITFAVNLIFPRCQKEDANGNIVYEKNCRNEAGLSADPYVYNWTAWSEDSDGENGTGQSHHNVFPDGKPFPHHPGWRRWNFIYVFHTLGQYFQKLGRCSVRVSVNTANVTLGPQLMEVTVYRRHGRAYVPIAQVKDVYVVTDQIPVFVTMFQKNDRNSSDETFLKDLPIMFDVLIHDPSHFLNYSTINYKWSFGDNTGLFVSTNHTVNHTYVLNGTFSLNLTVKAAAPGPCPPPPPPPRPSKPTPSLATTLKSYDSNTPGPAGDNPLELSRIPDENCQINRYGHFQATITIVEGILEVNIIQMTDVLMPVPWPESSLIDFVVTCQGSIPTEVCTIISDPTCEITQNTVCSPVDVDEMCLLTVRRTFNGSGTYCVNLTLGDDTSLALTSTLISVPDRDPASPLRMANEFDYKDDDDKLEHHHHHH

B1: hGPN18-2_H2L3 VH D52A (antibody, V domains shown)
VH: QVQLVQSGPGLVQPTQTLTLTCSFSGFSLSTSVMGVGWIRQPSGKGLEWLAAIWWDDDKDYNPSLKSRLTISKDTSKNQVVLTMTNMDTVDTATYYCARTYYSNYEYYGMDYWGQGTLVTVSS
VL: DIVMTQSPDSLAVSLGERATINCRSSQTIILSNGNTYLEWYQQKPGQPPKLLIYKVSNRFSGVPDRFSGSGSGTDFTLTISSLQAEDVAVYYCFQGSHVPFTFGSGTKLEIKR
B2: hGPN18-2_H2L3 VH D56A (antibody, V domains shown)
VH: B1 VH with A52D, D56A
VL: B1 VL
B3: hGPN18-2_H2L3 VH D57A (antibody, V domains shown)
VH: B1 VH with A52D, D57A
VL: B1 VL
B4: hGPN18-2_H2L3 VH D58A (antibody, V domains shown)
VH: B1 VH with A52D, D58A
VL: B1 VL
B5: hGPN18-2_H2L3 VH D60A (antibody, V domains shown)
VH: B1 VH with A52D, D60A
VL: B1 VL
B6: hGPN18-2_H2L3 VH F27A (antibody, V domains shown)
VH: B1 VH with F27A, A52D
VL: B1 VL
B7: hGPN18-2_H2L3 VH G26A (antibody, V domains shown)
VH: B1 VH with G26A, A52D
VL: B1 VL
B8: hGPN18-2_H2L3 VH G35A (antibody, V domains shown)
VH: B1 VH with G35A, A52D
VL: B1 VL
B9: hGPN18-2_H2L3 VH G37A (antibody, V domains shown)
VH: B1 VH with G37A, A52D
VL: B1 VL
B10: hGPN18-2_H2L3 VH I53A (antibody, V domains shown)
VH: B1 VH with A52D, I53A
VL: B1 VL
B11: hGPN18-2_H2L3 VH K59A (antibody, V domains shown)
VH: B1 VH with A52D, K59A
VL: B1 VL
B12: hGPN18-2_H2L3 VH L29A (antibody, V domains shown)
VH: B1 VH with L29A, A52D
VL: B1 VL
B13: hGPN18-2_H2L3 VH M34A (antibody, V domains shown)
VH: B1 VH with M34A, A52D
VL: B1 VL
B14: hGPN18-2_H2L3 VH S28A (antibody, V domains shown)
VH: B1 VH with S28A, A52D
VL: B1 VL
B15: hGPN18-2_H2L3 VH S30A (antibody, V domains shown)
VH: B1 VH with S30A, A52D
VL: B1 VL
B16: hGPN18-2_H2L3 VH S32A (antibody, V domains shown)
VH: B1 VH with S32A, A52D
VL: B1 VL
B17: hGPN18-2_H2L3 VH T31A (antibody, V domains shown)
VH: B1 VH with T31A, A52D
VL: B1 VL
B18: hGPN18-2_H2L3 VH V33A (antibody, V domains shown)
VH: B1 VH with V33A, A52D
VL: B1 VL
B19: hGPN06-1_H1L1 VL L53A (antibody, V domains shown)
VH: QVQLVQSGAEVKKPGASVKVSCKASGYTFTDNWMGWVKQRPGQGLEWIGAIDPSDSFTNYNQNFKGRVTMTVDTSISTAYMELSRLRSDDSAVYFCTRSGYYGSPKLGGDYWGQGTLVTVSS
VL: EIVLTQSPSSLSASVGDRVTITCSASSSISYMHWYQQKSGTAPKLLIYSTSNAASGVPSRFSGSGSGTDFTFTISSLQPEDAATYYCHQWNSYPCTFGGGTKLEIK
B20: hGPN06-1_H1L1 VL M32A (antibody, V domains shown)
VH: B19 VH
VL: B19 VL with M32A, A53L
B21: hGPN06-1_H1L1 VL N52A (antibody, V domains shown)
VH: B19 VH
VL: B19 VL with N52A, A53L
B22: hGPN06-1_H1L1 VL N91A (antibody, V domains shown)
VH: B19 VH
VL: B19 VL with A53L, N91A
B23: hGPN06-1_H1L1 VL P94A (antibody, V domains shown)
VH: B19 VH
VL: B19 VL with A53L, P94A
B24: hGPN06-1_H1L1 VL Q89A (antibody, V domains shown)
VH: B19 VH
VL: B19 VL with A53L, Q89A
B25: hGPN06-1_H1L1 VL S24A (antibody, V domains shown)
VH: B19 VH
VL: B19 VL with S24A, A53L
B26: hGPN06-1_H1L1 VL S26A (antibody, V domains shown)
VH: B19 VH
VL: B19 VL with S26A, A53L
B27: hGPN06-1_H1L1 VL S27A (antibody, V domains shown)
VH: B19 VH
VL: B19 VL with S27A, A53L
B28: hGPN06-1_H1L1 VL S28A (antibody, V domains shown)
VH: B19 VH
VL: B19 VL with S28A, A53L
B29: hGPN06-1_H1L1 VL S30A (antibody, V domains shown)
VH: B19 VH
VL: B19 VL with S30A, A53L
B30: hGPN06-1_H1L1 VL S49A (antibody, V domains shown)
VH: B19 VH
VL: B19 VL with S49A, A53L
B31: hGPN06-1_H1L1 VL S51A (antibody, V domains shown)
VH: B19 VH
VL: B19 VL with S51A, A53L
B32: hGPN06-1_H1L1 VL S55A (antibody, V domains shown)
VH: B19 VH
VL: B19 VL with A53L, S55A
B33: hGPN06-1_H1L1 VL S92A (antibody, V domains shown)
VH: B19 VH
VL: B19 VL with A53L, S92A
B34: hGPN06-1_H1L1 VL T50A (antibody, V domains shown)
VH: B19 VH
VL: B19 VL with T50A, A53L
B35: hGPN06-1_H1L1 VL T96A (antibody, V domains shown)
VH: B19 VH
VL: B19 VL with A53L, T96A
B36: hGPN06-1_H1L1 VL W90A (antibody, V domains shown)
VH: B19 VH
VL: B19 VL with A53L, W90A

What follows are binders tested against T1, recombinant human soluble gpNMB … (assay: antigen ELISA, vs hGPN18-2_H2L3).

Compared with B1, B2 is higher in Relative binding activity: 0.05 for the first, 0.63 for the second.

First: B3
Second: B4
The Relative binding activity of the first is higher: 0.86 for the first, 0.5 for the second.

Compared with B5, B6 is lower in Relative binding activity: 0.98 for the first, 0.69 for the second.

Compared with B7, B8 is lower in Relative binding activity: 0.84 for the first, 0.68 for the second.

Going from B9 to B10, the Relative binding activity falls from 0.87 to 0.6.

First: B11
Second: B12
The Relative binding activity of the first is lower: 0.78 for the first, 0.82 for the second.

First: B13
Second: B14
The Relative binding activity of the first is higher: 0.91 for the first, 0.88 for the second.

First: B15
Second: B16
The Relative binding activity of the first is higher: 0.97 for the first, 0.78 for the second.

First: B17
Second: B18
The Relative binding activity of the first is higher: 0.97 for the first, 0.55 for the second.

These binders were tested against T1, recombinant human soluble gpNMB … (assay: antigen ELISA).

Going from B1 to B2, the EC50 falls from 100 nM to 8.98 nM (11-fold). The second is the more potent here.

Going from B3 to B4, the EC50 rises from 5.61 nM to 10.2 nM (1.8-fold). The first is the more potent here.

Going from B5 to B6, the EC50 rises from 3.13 nM to 5.47 nM (1.7-fold). The first is the more potent here.

B7 and B8 are within 1.5-fold of each other in EC50: 3.92 nM for the first, 5.16 nM for the second.

Going from B9 to B10, the EC50 rises from 3.32 nM to 6.94 nM (2.1-fold).

B11 and B12 are within 1.5-fold of each other in EC50: 4.42 nM for the first, 4.41 nM for the second.

B13 and B14 are within 1.5-fold of each other in EC50: 3.58 nM for the first, 3.22 nM for the second.

Going from B15 to B16, the EC50 falls from 6.6 nM to 4.31 nM (1.5-fold).

First: B17
Second: B18
The EC50 of the first is 2.8-fold lower: 3.12 nM for the first, 8.88 nM for the second.

Target: T1, recombinant human soluble gpNMB …
Assay: antigen ELISA
Remark: another data set of the same source

First: B19
Second: B20
The EC50 of the first is 11-fold lower: 0.564 nM for the first, 6.4 nM for the second.

Compared with B21, B22 is 2.2-fold higher in EC50: 0.85 nM for the first, 1.84 nM for the second. The first is the more potent here.

B23 and B24 are within 1.5-fold of each other in EC50: 26.4 nM for the first, 27.5 nM for the second.

Compared with B25, B26 is 1.8-fold lower in EC50: 1.99 nM for the first, 1.09 nM for the second. The second is the more potent here.

B27 and B28 are within 1.5-fold of each other in EC50: 1.56 nM for the first, 1.27 nM for the second.

Compared with B29, B30 is 12-fold lower in EC50: 8.63 nM for the first, 0.7 nM for the second. The second is the more potent here.

Going from B31 to B32, the EC50 falls from 0.927 nM to 0.603 nM (1.5-fold).

First: B33
Second: B34
The EC50 of the first is 1.7-fold lower: 1.86 nM for the first, 3.19 nM for the second.

First: B35
Second: B36
The EC50 of the first is 120-fold lower: 1.03 nM for the first, 122 nM for the second.

The binders below were run against T1, recombinant human soluble gpNMB … (assay: antigen ELISA, vs hGPN06-1_H1L1).

Going from B19 to B20, the Relative binding activity falls from 0.98 to 0.65.

First: B21
Second: B22
The Relative binding activity of the first is higher: 0.74 for the first, 0.58 for the second.

Going from B23 to B24, the Relative binding activity rises from 0.05 to 0.06.

Going from B25 to B26, the Relative binding activity falls from 0.98 to 0.75.

Compared with B27, B28 is higher in Relative binding activity: 0.99 for the first, 1.18 for the second.

First: B29
Second: B30
The Relative binding activity of the first is lower: 0.58 for the first, 0.79 for the second.

Going from B31 to B32, the Relative binding activity rises from 0.82 to 1.

Going from B33 to B34, the Relative binding activity rises from 0.19 to 0.3.

Going from B35 to B36, the Relative binding activity falls from 0.83 to 0.13.
